Measured values reported in patent US20220289837A1, “Cystic Fibrosis Transmembrane Conductance Regulator Stabilizing Agents” (VIB VZW, priority 2019, published 2022).

Legend:
wt-CFTR [1] = biological target: T1, wt-CFTR (Homo sapiens, UniProt P13569); test: Flow cytometry on permeabilized BHK-21 cells overexpressing wt-CFTR; assay type: cell-based; parameters: expressed in transfected cells; conditions: compared to negative control nanobody
Description: (§1) Parental BHK-21 cells (ATCC; CCL-10) and cells stably overexpressing human wt-CFTR^[43,44,47] or 2PT-F508del-CFTR, as described above, were permeabilized with 0.01% n-Dodecyl-β-D-Maltopyranoside β-DDM—Inalco) at least for 2 h on ice. In the meantime, cells were incubated with 50 μg/ml nanobodies and DRAQ7 (0.3 μM—Biostatus) to monitor the permeabilization state. Nanobody binding was detected by using His-tag specific antibody (Invitrogen, catalogue number MA1-135, 1 μg/ml) or Myc-tag specific antibody (Invitrogen, catalogue number 13-2500, 2 μg/ml) and then anti-mouse-Alexa Fluor 488 (Invitrogen, catalogue number A11001, 1.3 μg/ml) at least for 30 min on ice. Cells were washed one time between each step by centrifugation (200×g for 5 min at 4° C.). All incubations (100 μl) and washes (1.5 ml) were performed in PBS with 6% fetal bovine serum (FBS) and 0.01%13-DDM on ice. Cells fluorescence was measured with Gallios Flow Cytometer (Beckman Coulter). Data were analyzed with Kaluza software.

parental BHK-21 cells = test: Flow cytometry on parental BHK-21 cells; assay type: cell-based, hamster; conditions: compared to negative control nanobody
Description: as §1

wt-CFTR [2] = biological target: T1, wt-CFTR; test: Thermal inactivation of CFTR (residual ATPase activity after heat challenge); assay type: biochemical; parameters: His10-SUMO* (N); FLAG; EGFP (C); made in house; host or cells: HEK 293 cell line D165; conditions: residual ATPase activity after 30 min heat challenge
Description: To determine effect of nanobodies on functional stability, aliquots of purified wt-CFTR (25 nM) were preincubated 1 h on ice with 1 μM nanobody (or 15 μM, in the case of G3a). Substrate α-[32P]-ATP (2 μl) was then added for measurement of ATPase activity as previously described^[48]. Then, nanobody protection against thermal denaturation was determined after a 30 min thermal challenge of the protein complexes followed by an assay of residual ATPase.

2PT-NBD1 = biological target: T2, 2PT-NBD1 (Homo sapiens, UniProt P13569, A534P/I539T/S492P/V470M); test: NBD1 ELISA dose-response, nanobody binding to immobilized 2PT-NBD1; conditions: immobilized biotinylated 2PT-NBD1
T2 construct: 2PT-NBD1 mutants (residues 387-646 containing the mutations S492P, A534P, I539T); His6-SUMO (N, cleaved yes); made in house; host or cells: Escherichia coli BL21(DE3) pLysS
Description: For dose-response assays, Nunc MaxiSorp 96-well plates (ThermoScientific), were coated with 5 μg/ml NeutrAvidin Biotin-Binding protein (ThermoScientific) overnight at 4° C. and blocked 2 h at room temperature (RT) with 2% milk in phosphate-buffered saline (PBS). Each new reagent addition was preceded by three washes with 200 μl of NBD1 buffer (20 mM HEPES pH 7.5, 150 mM NaCl, and 10% (w/v) glycerol, 10% (w/v) ethylene glycol, 2 mM ATP, 3 mM MgCl2). Then, biotinylated purified NBD1 proteins at 5 μg/ml were immobilized 30 min at RT followed by 1 h RT incubation with 100 μl various concentrations (0-20 μg/ml) of purified nanobodies. […] 50 μl of 1-Step UltraTMB-ELISA (ThermoScientific) was used as a substrate for the peroxidase and intensity of the reaction was proportional to absorbance measured at 450 nm with SynergyMx (BioTek) after addition of 50 μl H2SO4 at 1M.
Affinity constants (KD) and thermodynamic parameters from ITC experiments were determined using one-site binding model with MicroCal Origin 7.0 software (Origin Lab Corp.). […] DSC data were analyzed with the MicroCal Origin 7.0 software (Origin Lab Corp.), from which the unfolding temperature (Tm) was obtained.

F508del-CFTR = biological target: T3, F508del-CFTR (Homo sapiens, UniProt P13569, DEL508-508); test: Forskolin induced organoid swelling (FIS) assay; assay type: cell-based; conditions: F508del homozygous intestinal organoids, lentiviral Nb, 3 μM VX-809 24 h before, Fsk and 3 μM VX-770, 2 h
T3 construct: expressed in transfected cells
Excerpt: Intestinal organoids are 3D epithelial structures grown from a single Lgr5+ stem cell (originating from the crypts of the GI-tract) with an internal lumen that recapitulates key features of the intestinal tissue architecture. When differentiated, the organoids form villus and crypt-like structures. CFTR is located at the apical membrane lining the internal lumen and its activation leads to rapid organoid swelling, in direct correlation with the amount of functional CFTR. This model system thus provides a physiologically relevant assay to evaluate the potential of new therapies with high translational value. CF patient-derived organoids expressing F508del-CFTR from two alleles were transduced with lentiviral vectors encoding the sequence of either a stabilizing nanobody (T2a) or a control nanobody. 24 h before FIS assay, corrector 3 μM VX-809 or DMSO was added. Organoids were stimulated by Fsk (0,8 μM) and 3 μM VX-770 just before FIS. […]
Transduction of human intestinal organoids was performed as described previously (Vidovic, Carlon et al. 2016, Ensinck, De Keersmaecker et al. 2020). […] Organoids were stimulated with forskolin (5 μM) and VX-770 (3 μM) or DMSO, and analyzed by confocal live cell microscopy at 37° C. for 120 min (LSM800, Zeiss, Zen Blue). The total organoid area increase relative to t=0 of forskolin treatment was quantified.

T1 sequence (P13569 whole entry): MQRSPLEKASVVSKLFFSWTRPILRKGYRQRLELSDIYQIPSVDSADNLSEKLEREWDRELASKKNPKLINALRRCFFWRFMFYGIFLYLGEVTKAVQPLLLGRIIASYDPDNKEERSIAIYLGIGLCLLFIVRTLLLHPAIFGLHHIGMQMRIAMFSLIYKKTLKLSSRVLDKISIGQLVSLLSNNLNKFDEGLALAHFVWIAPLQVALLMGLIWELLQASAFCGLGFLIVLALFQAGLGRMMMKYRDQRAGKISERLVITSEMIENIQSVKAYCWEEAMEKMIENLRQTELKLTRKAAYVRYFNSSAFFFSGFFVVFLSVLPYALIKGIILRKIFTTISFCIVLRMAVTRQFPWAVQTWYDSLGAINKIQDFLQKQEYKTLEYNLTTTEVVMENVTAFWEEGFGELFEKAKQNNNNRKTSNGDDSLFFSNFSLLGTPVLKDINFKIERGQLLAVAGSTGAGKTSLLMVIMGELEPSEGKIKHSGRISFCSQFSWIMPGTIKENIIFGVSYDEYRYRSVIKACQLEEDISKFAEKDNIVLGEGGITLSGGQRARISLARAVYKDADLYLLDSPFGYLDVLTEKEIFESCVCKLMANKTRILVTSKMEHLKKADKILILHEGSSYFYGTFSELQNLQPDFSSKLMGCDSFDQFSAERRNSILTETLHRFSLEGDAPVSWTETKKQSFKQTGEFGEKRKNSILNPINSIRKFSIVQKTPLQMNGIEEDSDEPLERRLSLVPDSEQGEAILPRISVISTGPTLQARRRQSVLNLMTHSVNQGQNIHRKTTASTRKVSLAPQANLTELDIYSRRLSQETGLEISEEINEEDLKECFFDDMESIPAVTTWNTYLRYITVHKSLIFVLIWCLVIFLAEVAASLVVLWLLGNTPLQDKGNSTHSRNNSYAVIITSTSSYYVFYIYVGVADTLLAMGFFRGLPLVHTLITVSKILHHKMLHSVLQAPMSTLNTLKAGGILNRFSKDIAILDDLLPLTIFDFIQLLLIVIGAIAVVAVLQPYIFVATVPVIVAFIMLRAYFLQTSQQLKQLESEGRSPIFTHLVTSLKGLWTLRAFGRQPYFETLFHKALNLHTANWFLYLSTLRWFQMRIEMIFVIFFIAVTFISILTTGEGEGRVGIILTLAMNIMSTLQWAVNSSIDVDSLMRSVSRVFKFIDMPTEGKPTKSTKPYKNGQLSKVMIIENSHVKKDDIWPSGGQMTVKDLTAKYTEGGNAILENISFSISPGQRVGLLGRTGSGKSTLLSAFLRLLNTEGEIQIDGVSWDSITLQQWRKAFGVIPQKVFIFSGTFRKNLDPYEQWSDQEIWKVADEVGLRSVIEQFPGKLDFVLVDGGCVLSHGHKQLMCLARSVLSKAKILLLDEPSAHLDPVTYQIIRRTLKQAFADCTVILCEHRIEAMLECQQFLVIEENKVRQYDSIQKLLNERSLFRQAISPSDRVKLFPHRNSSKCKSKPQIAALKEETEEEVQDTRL
T2 sequence (P13569 388-646 V470M/S492P/A534P/I539T): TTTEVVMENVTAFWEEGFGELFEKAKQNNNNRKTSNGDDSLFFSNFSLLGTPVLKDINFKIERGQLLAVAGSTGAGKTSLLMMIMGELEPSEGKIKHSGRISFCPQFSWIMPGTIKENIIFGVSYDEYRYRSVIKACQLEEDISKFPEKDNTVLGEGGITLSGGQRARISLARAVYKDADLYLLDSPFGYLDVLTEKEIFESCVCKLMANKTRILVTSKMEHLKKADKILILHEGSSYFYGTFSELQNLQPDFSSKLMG
T3 sequence (P13569 with tags, fused parts or gaps DEL508-508): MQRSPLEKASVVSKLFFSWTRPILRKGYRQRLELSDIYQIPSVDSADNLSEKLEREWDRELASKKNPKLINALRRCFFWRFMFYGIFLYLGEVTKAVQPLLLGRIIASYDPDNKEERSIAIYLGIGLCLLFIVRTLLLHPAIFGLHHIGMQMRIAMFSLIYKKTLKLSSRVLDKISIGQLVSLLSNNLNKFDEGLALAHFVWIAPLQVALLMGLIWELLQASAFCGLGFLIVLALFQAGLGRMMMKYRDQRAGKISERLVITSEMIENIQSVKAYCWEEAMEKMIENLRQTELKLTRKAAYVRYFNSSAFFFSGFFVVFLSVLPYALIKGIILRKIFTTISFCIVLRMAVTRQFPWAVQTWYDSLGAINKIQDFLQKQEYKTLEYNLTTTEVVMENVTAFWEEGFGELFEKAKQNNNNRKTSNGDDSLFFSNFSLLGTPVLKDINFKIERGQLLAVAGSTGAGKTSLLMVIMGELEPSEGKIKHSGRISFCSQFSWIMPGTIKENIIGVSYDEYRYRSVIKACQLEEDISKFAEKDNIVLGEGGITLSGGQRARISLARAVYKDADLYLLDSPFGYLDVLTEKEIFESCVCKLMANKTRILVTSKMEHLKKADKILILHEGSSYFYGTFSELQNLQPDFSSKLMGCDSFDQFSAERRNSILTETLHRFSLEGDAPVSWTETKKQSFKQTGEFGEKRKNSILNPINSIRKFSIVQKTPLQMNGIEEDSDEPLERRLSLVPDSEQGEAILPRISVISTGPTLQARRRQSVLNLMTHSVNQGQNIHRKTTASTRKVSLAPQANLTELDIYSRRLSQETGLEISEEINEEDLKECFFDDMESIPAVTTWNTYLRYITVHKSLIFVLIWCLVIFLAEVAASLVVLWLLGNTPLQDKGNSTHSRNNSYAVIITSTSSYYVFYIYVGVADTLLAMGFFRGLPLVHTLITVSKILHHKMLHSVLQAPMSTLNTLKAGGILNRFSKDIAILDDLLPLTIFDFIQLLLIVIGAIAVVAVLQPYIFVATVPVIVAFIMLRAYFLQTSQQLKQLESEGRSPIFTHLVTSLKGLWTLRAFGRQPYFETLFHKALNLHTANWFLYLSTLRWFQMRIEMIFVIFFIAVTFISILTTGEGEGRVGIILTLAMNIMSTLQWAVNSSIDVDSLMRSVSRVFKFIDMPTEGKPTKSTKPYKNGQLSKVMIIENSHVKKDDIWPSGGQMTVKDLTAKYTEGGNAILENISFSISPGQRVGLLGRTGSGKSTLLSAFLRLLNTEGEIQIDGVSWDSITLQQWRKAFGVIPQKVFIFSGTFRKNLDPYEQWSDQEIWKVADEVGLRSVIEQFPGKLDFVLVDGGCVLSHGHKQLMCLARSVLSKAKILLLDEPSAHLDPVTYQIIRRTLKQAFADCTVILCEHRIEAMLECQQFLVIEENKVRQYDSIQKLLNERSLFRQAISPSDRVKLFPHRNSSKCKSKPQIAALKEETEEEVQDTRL

Molecule	labelling of BHK-21 cells overexpressing wt-CFTR (wt-CFTR [1])	labelling of parental BHK-21 cells (parental BHK-21 cells)	shift of CFTR thermal inactivation (wt-CFTR [2]) [°C]	EC50 of binding to 2PT-NBD1 (2PT-NBD1)	CFTR response (relative increase in organoid surface area) (F508del-CFTR)
T8: nanobody, SEQ ID NO:7, binds epitope 2 including F508, stabilizes WT CFTR but not F508del (protein, T8 Nanobody amino acid sequence) VHH: QVQLQESGGGLVQPGGSLRLSCAASGSTSSINAMGWYRQAPGKQREPVAISSSGGDTRYAEPVKGRFTISRDNAQNKVYLQMNSLKPEDTAVYYCWLNWGRTSVNSWGQGTQVTVSS	increased labelling	no difference in labelling	–	–	–
D12: NBD1-specific CFTR-stabilizing nanobody, SEQ ID NO:2, binds epitope 1 (protein, D12 Nanobody amino acid sequence) VHH: QVQLQESGGGLVQAGSSLRLACAATGSIRSINNMGWYRQAPGKQRGMVAIITRVGNTDYADSVKGRFTISRDNAKNTVYLQMNSLKPEDTATYYCHAEITEQSRPFYLTDDYWGQGTQVTVSS	increased labelling	no difference in labelling	7	–	–
G3a: non-stabilizing nanobody, SEQ ID NO:50, recognizes the structurally diverse region of NBD1 (protein, G3a Nanobody) VHH: QVQLQESGGGLVQAGGSLRLSCTASGRAFSWYVMGWFRQAPGKEREFVATVSGNGSRRDYADSVKGRFTISRDNAKNTVYLQMNSLKPEDTAVYYCAASSTYYYTDPEKYDYWGQGTQVTVSS	increased labelling	no difference in labelling	3.1	weaker binding potency	–
T27: NBD1-specific CFTR-stabilizing nanobody, SEQ ID NO:4, binds epitope 1 (protein, T27 Nanobody amino acid sequence) VHH: QVQLQESGGGLEQPGGSLRLSCATSGVIFGINAMGWYRQAPGKQRELVATFTSGGSTNYADFVEGRFTISRDNAKNTVYLQMNGLRPEDTAVYYCHATVVVSRYGLTYDYWGQGTQVTVSS	increased labelling	no difference in labelling	–	–	–
T2a: NBD1-specific CFTR-stabilizing nanobody, SEQ ID NO:3, binds epitope 1 (protein, T2a Nanobody amino acid sequence) VHH: QVQLQESGGGLVQAGGSLRLSCAASGSIFRIDAMGWYRQAPGKQRELVAHSTSGGSTDYADSVKGRFTISRDNAKNTVYLQMNSLKPEDTAVYYCNADVRTRWYASNNYWGQGTQVTVSS	increased labelling	no difference in labelling	–	–	significantly increased CFTR functionality over time
